The supplement of paper PMC10567573
± gives the standard deviation.

Experiment: protein stability index of a GFP-peptide fusion (GPS, HEK-293T) (PSI 1-6); higher = more stable
[1] = treatment: DMSO, c terminus: a fixed tail appended
[2] = treatment: MLN4924 1 uM, 8 h, c terminus: a fixed tail appended
[3] = treatment: DMSO, c terminus: native
[4] = treatment: MLN4924 1 uM, 8 h, c terminus: native
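Note: 24-mer peptide tiles fused after GFP, lentivirally expressed, FACS-sorted into six equal bins by GFP/DsRed ratio, decoded by Illumina sequencing, PSI is the read-weighted mean bin number.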

Row | Sequence | protein stability index [1] | protein stability index [2] | protein stability index [3] | protein stability index [4]
1 | VEDLVDSLKLALLFYILTFVGAIF [RTN2] | 2.8 ± 0.35 | 2.48 ± 0.55 |  | 
2 | VEPPGPGDTVVQGDLQETTVVTGL [PBXIP1] | 5.31 ± 0.4 | 5.15 ± 0.46 |  | 
3 | VESFKTKVSYLKQKGLGGAMVWAL [CHIT1] | 2.54 ± 0.49 | 2.7 ± 0.56 |  | 
4 | VFIISTLAIDFIDEGRLLLEFDLL [SOAT2] | 3.23 ± 0.31 | 3.03 ± 0.36 |  | 
5 | VFPETAFIAVTSYQNHKITQLKIE [TBX5] | 2.22 ± 0.35 | 2.21 ± 0.32 |  | 
6 | VGGTIRTCQKFLIQYNRRQLLILL [POP5] | 2.96 ± 0.47 | 2.64 ± 0.67 |  | 
7 | VGLIRNLALCPANHAPLREQGAIP [CTNNB1] | 3.21 ± 0.24 | 3.32 ± 0.32 |  | 
8 | VGVMLPHNTTEAPGPHSAKQDSYE [ZC2HC1C] | 5.03 ± 0.27 | 5.215 ± 0.033 |  | 
9 | VIESFTELSRIVLMRHGMEKIWRP [RAB40C] | 3.11 ± 1 | 2.6 ± 0.59 |  | 
10 | VKGMQRIVNQWSEKFSDEGDSDSA [DLC1] | 4.68 ± 0.21 | 5.09 ± 0.29 |  | 
11 | VKKNSAKSMGLKKKAFVWARNIGF [ACSBG2] | 2.03 ± 0.12 | 2.24 ± 0.22 |  | 
12 | VKVLAGQEYAAKIINTKKLSARDH [CAMK2A] | 3.15 ± 0.34 | 3.33 ± 0.11 |  | 
13 | VKWMVVFAIGVCTGLVGLFVDFFV [CLCN6] | 2.16 ± 0.31 | 2.42 ± 0.46 |  | 
14 | VLERGDSAPATAKENAAAPSPVRA [PALM] | 5.3 ± 0.23 | 5.24 ± 0.078 |  | 
15 | VLGADGVCMTFMKQIAGGDVTAKN [INTS3] | 3.51 ± 0.26 | 3.6 ± 0.42 |  | 
16 | VLSHIMFDGPEAWGVCEPQREEVE [ZER1] | 3.63 ± 0.17 | 3.49 ± 0.28 |  | 
17 | VLSREQSRRSYDDQLRSGSPPKSP [DNAJC4] | 5.29 ± 0.26 | 5.45 ± 0.12 |  | 
18 | VLTKKFQVTMRGLLSCLSKSNNRL [FBXO39] | 3.16 ± 0.51 | 3.24 ± 1.2 |  | 
19 | VLTLPFDVVKTQRQVALGAMEAVR [SLC25A39] | 2.51 ± 0.36 | 2.71 ± 0.26 |  | 
20 | VNIMRTYTYEKLLWTTSRVLKVLS [CTNNB1] | 2.18 ± 0.14 | 2.41 ± 0.67 |  | 
21 | VNSYYSSPAQQVPKNPALEAFLAQ [TOR1AIP2] | 3.45 ± 0.36 | 3.66 ± 0.25 |  | 
22 | VPPRMGSRAGGPTTPLSPTRLSRL [LMNB1] | 3.92 ± 0.57 | 3.85 ± 0.56 |  | 
23 | VQAPRWGNPRALSFVLSSLQLGEG [OAS1] | 2.31 ± 0.2 | 2.24 ± 0.22 |  | 
24 | VQPCSAVHLLLKKVLFALCALNAL [FAM189A2] | 2.26 ± 0.37 | 2.35 ± 0.6 |  | 

Row | Sequence | protein stability index [1] | protein stability index [2] | protein stability index [3] | protein stability index [4]
25 | VQSLCAKHGIEYQSKPLLSAFADI [FADS1] | 2.31 ± 0.3 | 2.32 ± 0.26 |  | 
26 | VRAAQLCSQHWGGMASFRFPETTF [TBX6] | 2.48 ± 0.59 | 2.1 ± 0.34 |  | 
27 | VRKVPPGYSIKVFDFERSGLQHAP [SMAD6] | 2.31 ± 0.33 | 2.63 ± 0.035 |  | 
28 | VSSNNRLVVTGSGEHASVYQITY [TLE6] |  |  | 2.7 ± 0.26 | 2.68 ± 0.23
29 | VSWFGSPTTSFLSISKLSPFSEFF [PWWP2B] | 2.32 ± 0.62 | 2.35 ± 0.41 |  | 
30 | VTQPCGDCGTIQENWVCLSCYQVY [HDAC6] | 2.89 ± 0.57 | 2.96 ± 0.7 |  | 
31 | VTTYLHKDYNNLWIIKKHNTNSDP [POMT2] | 2.31 ± 0.48 | 2.5 ± 0.23 |  | 
32 | VVGGAMFFIGFTALVIMWQKHYVY [COX4I1] | 3.11 ± 0.29 | 3.24 ± 0.49 |  | 
33 | VVLCEGVKWLSFHSGYDFGYLIKI [CNOT7] | 2.87 ± 0.36 | 3.09 ± 1.2 |  | 
34 | VVLLFETALLSSGFSLEDPQTHSN [HSP90AB1] |  | 2.83 ± 0.84 |  | 
35 | VVTTEHILVSVAAGVSLSTLEELL [PYCR3] | 3.04 ± 0.72 | 2.78 ± 0.66 |  | 
36 | VYDNEKKLQLQLNETKSQAFVSNS [PLD5] | 4.48 ± 0.47 | 4.33 ± 0.19 |  | 
37 | VYEDETKVVHAVDGTAENGIHPLS [PALM] | 4.88 ± 0.24 | 5.11 ± 0.11 |  | 
38 | VYRFVCDLQNLLGFTPEELHAILG [ETS2] | 2.21 ± 0.41 | 2.19 ± 0.11 |  | 
39 | VYTETVHVTVENVQELLPAACLLQ [KLHL12] | 2.12 ± 0.52 | 1.91 ± 0.26 |  | 
40 | WAEAECQRQQLPVTFGNKQKVLGK [BTBD1] | 4.42 ± 0.45 | 4.31 ± 0.42 |  | 
41 | WDSFSAWLHCVCVVGFDLELGQAV [DENND6A] | 3.04 ± 0.34 | 3.27 ± 0.68 |  | 
42 | WEIAKAEVEKRGINGSEGDGAEIA [DYNC2LI1] | 5.26 ± 0.22 | 5.18 ± 0.27 |  | 
43 | WEKKPFSEDVNWGYEKRNLARVPK [CHGB] | 3.38 ± 0.3 | 3.87 ± 0.17 |  | 
44 | WGDCSRTCGGGVQFSSRDCTRPVP [ADAMTS4] | 2.9 ± 0.95 | 2.94 ± 0.26 |  | 
45 | WIDIKQFVWYTPPTFMIAVFLPIV [STEAP1] | 2.67 ± 0.36 | 3.39 ± 0.61 |  | 
46 | WLLNNLMTHQNVELFKELSINVMK [GMCL1] | 2.28 ± 0.54 | 2.08 ± 0.3 |  | 
47 | WNFEITNQSFNIVDIKPANMEELT [PPP2R2B] | 3.4 ± 0.55 | 3.13 ± 0.65 |  | 
48 | WPFSMDCTGTEAHISSCKLGPQVS [LOXL2] | 3.02 ± 0.25 | 3.08 ± 0.34 |  | 

Row | Sequence | protein stability index [1] | protein stability index [2] | protein stability index [3] | protein stability index [4]
49 | WQAKREEEEEEEEEAEAGEEAVPE [CHGA] | 5.6 ± 0.47 | 5.7 ± 0.22 |  | 
50 | WQMIEQIQFIKLFGMAKIDNLLQE [HNF4A] | 2.9 ± 0.7 | 2.33 ± 0.33 |  | 
51 | YAHQPRTADEIPMEPGDIIGVAGN [FUT8] | 4.2 ± 0.24 | 4.36 ± 0.17 |  | 
52 | YANLALSGLIEIQSYPLCIYLINQ [SLC22A15] | 3.9 ± 0.46 | 3.34 ± 0.19 |  | 
53 | YDKNIIHKTAGKRYVYRFVCDLQS [ETS1] | 2.11 ± 0.17 | 2.14 ± 0.17 |  | 
54 | YHEAPMTRKHYQVTGYGINGTGDS [POMT2] | 2.97 ± 0.36 | 3.42 ± 0.31 |  | 
55 | YIFRVANHQKDLFRRTDGRCLIWG [DHCR7] | 2.77 ± 0.23 | 2.35 ± 0.41 |  | 
56 | YILLVGYPPFWDEDQHKLYQQIKA [CAMK2B] | 2.49 ± 0.57 | 2.82 ± 0.56 |  | 
57 | YLAYINAKSRAEAALEEESRQRQS [SMARCE1] | 3.93 ± 0.33 | 3.75 ± 0.33 |  | 
58 | YLDETCTCFVRDGKTYCKRDYVRL [ISL2] | 2.68 ± 0.084 | 2.95 ± 0.3 |  | 
59 | YLHPNSYSCACLASGSVLRLVDAV [HDAC6] | 2.82 ± 0.36 | 2.32 ± 0.066 |  | 
60 | YLNFIRGVVDSEDLPLNISREMLQ [HSP90AB1] | 2.69 ± 0.12 | 3.09 ± 0.47 |  | 
61 | YMYYFQYLSKTYCVDATRETNRLG [KMT5A] | 2.67 ± 0.47 | 2.81 ± 0.66 |  | 
62 | YNDGVINLLEKFFEMKKGQCKDAL [SNAP91] | 2.31 ± 0.3 | 2.34 ± 0.2 |  | 
63 | YPASIVDEPTFKVLLKTADPRYEL [ZBED1] | 2.89 ± 0.26 | 3.27 ± 0.29 |  | 
64 | YPVGWPPVQELPPSLRAPPPGGWP [ZMAT5] | 2.39 ± 0.88 | 2.83 ± 0.69 |  | 
65 | YRQVPGSDPARYEFLWGPRAHAEI [MAGEA10] | 2.73 ± 0.24 | 2.91 ± 0.26 |  | 
66 | YSFVLTNRGNSAGGLQHRVTAKTA [PTPRD] | 2.81 ± 0.29 | 2.97 ± 0.28 |  | 
67 | YSLLYLEHKGWYSWVLSMLYGFLL [CLPTM1] | 2.18 ± 0.37 | 2.26 ± 0.49 |  | 
68 | YTGYCWCVTPNGRPISGTAVAHKT [SMOC2] | 2.73 ± 0.55 | 2.51 ± 0.13 |  | 
69 | YTSSLACHRALQDAFSGLFWQPS [MNAT1] |  |  | 2.29 ± 0.51 | 2.01 ± 0.33
70 | YYERVLKRKTFNKVLGHVNNILIS [GDAP1] | 2.35 ± 0.35 | 2.64 ± 0.7 |  | 
